Experimental data published in patent publication US20250034266A1 (ZAI LAB SHANGHAI, published 2025).

Columns and labels:
human CCR8 [1] = target: T1, human CCR8 (human, UniProt P51685 1-355); assay: FACS, competition with CCL1 on CHO-K1-human CCR8 cells
T1 construct: whole, on cells; also called hCCR8

human CCR8 [2] = target: T1, human CCR8; assay: FACS on HuT78 cells (endogenous human CCR8)
Description: HuT78 cells expressing endogenous human CCR8 were used for determining binding affinities of selected affinity matured anti-CCR8 antibodies. Briefly, a total of […] cells for each well were seeded in 96-well plates and washed with FACS buffer (DPBS containing […]) for once. […] Cells were incubated with 50 μL of diluted antibodies at 4° C. for 1 hour. After primary antibody incubation, cells were washed for 3 times by FACS buffer. Then, cells were stained by Alexa Fbu647 labeled anti-human IgG secondary antibody (Jackson ImmunoResearch, #109606170) at 1:600 dilution in FACS buffer for 0.5 hour at 4° C. After 3 times washed, flow cytometry (Sartourius, iQue3) was performed to measure the binding affinities of antibodies. […]

cynomolgus CCR8 = target: T2, cynomolgus CCR8 (cynomolgus, UniProt G7NYJ2 1-355); assay: FACS on HEK293-cynomolgus CCR8 cells
T2 construct: whole, on cells

human CCR8 [3] = target: T1, human CCR8; assay: FACS on CHO-K1-human CCR8 cells
human CCR8 [4] = target: T1, human CCR8; assay: FACS, competition with AF647-human CCL1 on HEK293-human CCR8 cells
Description: (§1) Antibodies were prepared with 3-fold serial dilution ranging from 200 nM to 0.01 nM in FACS buffer. Then, cells were washed by FACS buffer for three times after incubation. […] FlowJo software was used for analysis. Data was plotted as the logarithm of antibody concentration versus mean fluorescence signals. IC₅₀ values were determined in GraphPad Prism 8 (GraphPad Software) using a log(agonist) vs. response-Variable slope (4 parameters) curve fit.

human CCR8 [5] = target: T1, human CCR8; assay: FACS, competition with AF647-human CCL1 on CHO-K1-human CCR8 cells
Description: as §1

T1 sequence (P51685 whole entry): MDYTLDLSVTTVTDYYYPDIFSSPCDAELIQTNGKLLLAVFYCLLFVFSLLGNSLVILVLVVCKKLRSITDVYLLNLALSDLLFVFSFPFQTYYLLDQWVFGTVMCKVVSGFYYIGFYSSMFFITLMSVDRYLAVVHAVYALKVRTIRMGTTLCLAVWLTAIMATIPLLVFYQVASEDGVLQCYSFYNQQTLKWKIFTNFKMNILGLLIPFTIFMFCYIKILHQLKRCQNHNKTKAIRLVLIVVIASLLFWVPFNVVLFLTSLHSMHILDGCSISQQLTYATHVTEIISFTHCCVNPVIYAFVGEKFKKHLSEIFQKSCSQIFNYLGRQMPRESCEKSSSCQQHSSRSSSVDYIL
T2 sequence (G7NYJ2 entry or part of it): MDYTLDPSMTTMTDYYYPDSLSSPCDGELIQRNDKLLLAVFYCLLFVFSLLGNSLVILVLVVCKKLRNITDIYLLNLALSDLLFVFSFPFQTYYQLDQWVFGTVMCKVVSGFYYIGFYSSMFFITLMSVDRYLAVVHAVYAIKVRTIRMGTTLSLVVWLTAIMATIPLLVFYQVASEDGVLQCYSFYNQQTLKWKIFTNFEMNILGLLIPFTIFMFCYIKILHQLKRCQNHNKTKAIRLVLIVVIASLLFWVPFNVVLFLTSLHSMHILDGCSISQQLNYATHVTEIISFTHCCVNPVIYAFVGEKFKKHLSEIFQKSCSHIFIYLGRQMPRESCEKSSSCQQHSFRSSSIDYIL

Row | Binder | IC50 (human CCR8 [1]) | Max Inhibition (%) (human CCR8 [1]) | Max MFI (human CCR8 [2]) | EC50 (cynomolgus CCR8) | Max MFI (cynomolgus CCR8) | EC50 (human CCR8 [3]) | Max MFI (human CCR8 [3]) | EC50 (human CCR8 [2]) | IC50 (human CCR8 [4]) | Max Inhibition (%) (human CCR8 [4]) | IC50 (human CCR8 [5]) | Max Inhibition (%) (human CCR8 [5])
1 | Hu149-13 (antibody, human IgG1, V domains shown, human IgG1) VH: EVQLVESGGGLVQPGGSLKLSCAASGFTFNTYAMNWVRQASGKGLEWVGRIRSKSNFYATAYAASVKGRFTISRDDSKNTAYLQMNSLKTEDTAVYYCTRGREYGRSYAMDYWGQGTLVTVSS VL: DIVMTQSPLSLPVTPGEPASISCRSSKSLLHSNANTYLYWFLQKPGQSPQLLIYRMSNLASGVPDRFSGSGSGTDFTLKISRVEAEDVGVYYCMQHLEYPLTFGGGTKVELK | 0.0841 nM | 102% | 39100 MFI | 0.193 nM | 4.37e+06 MFI | 0.1 nM | 653000 MFI | – | – | – | – | –
2 | Hu149-21 (antibody, human IgG1, V domains shown, human IgG1) VH: EVQLVESGGGLVQPGGSLKLSCAASGFTFNTYAMNWVRQASGKGLEWVGRIRSKSNFYATAYAASVKGRFTISRDDSKNTAYLQMNSLKTEDTAVYYCTRGREYGRSYAMDYWGQGTLVTVSS VL: DIVMTQSPLSLPVTPGEPASISCRSSKSLLHSNANTYLYWFLQKPGQSPQLLIYRMSNLASGVPDRFSGSGSGTDFTLKISRVEAEDVGVYYCMQHLKYPLTFGGGTKVELK | 0.796 nM | 101% | 240000 MFI | 0.946 nM | 4.15e+06 MFI | 0.642 nM | 794000 MFI | – | – | – | – | –
3 | Hu149-17 (antibody, human IgG1, V domains shown, human IgG1) VH: EVQLVESGGGLVQPGGSLKLSCAASGFTFNTYAMNWVRQASGKGLEWVGRIRSKSNFYATAYAASVKGRFTISRDDSKNTAYLQMNSLKTEDTAVYYCTRGRDYGSSYAMDYWGQGTLVTVSS VL: DIVMTQSPLSLPVTPGEPASISCRSSKSLLHSNANTYLYWFLQKPGQSPQLLIYRMSNLASGVPDRFSGSGSGTDFTLKISRVEAEDVGVYYCMQHLSYPLTFGGGTKVELK | 0.0698 nM | 100% | 29600 MFI | 0.123 nM | 4.11e+06 MFI | 0.0755 nM | 645000 MFI | – | – | – | – | –
4 | Hu149-20 (antibody, human IgG1, V domains shown, human IgG1) VH: EVQLVESGGGLVQPGGSLKLSCAASGFTFNTYAMNWVRQASGKGLEWVGRIRSKSNFYATAYAASVKGRFTISRDDSKNTAYLQMNSLKTEDTAVYYCTRGKEYGSSYAMDYWGQGTLVTVSS VL: DIVMTQSPLSLPVTPGEPASISCRSSKSLLHSNANTYLYWFLQKPGQSPQLLIYRMSNLASGVPDRFSGSGSGTDFTLKISRVEAEDVGVYYCMQHLKYPLTFGGGTKVELK | 0.147 nM | 100% | 253000 MFI | 0.158 nM | 4.02e+06 MFI | 0.129 nM | 751000 MFI | – | – | – | – | –
5 | 262C2G7 (antibody, V domains shown, purified murine hybridoma antibody) VH: DVHLQESGPGLVKPSQSLSLTCSVTGYSITSGYYWNWIRQFPGNKLEWMGYISYDGSNNYNPSLKNRISITRDISKNQFFLKLNSVTTEDTATYYCARQIGLRRGAMDYWGQGTSVTVSS VL: DIQMTQSSSYLSVSLGGRVTITCKASDHINNWLAWYQQKPGNAPRLLISGSTSLKAGVASRFSGSGSGKDYTLTITSLQTEDVATYYCQQYWGIPFTFGGGTKLEIK | – | – | – | – | – | – | – | – | 0.632 nM | 86.1% | 1.57 nM | 95.6%
6 | 234G9C12 (antibody, V domains shown, purified murine hybridoma antibody) VH: DVQLQESGPGLVKPSQSLSLTCSVTGYSITSGYYWNWIRQFPGNKLEWMGYTSYDGSNNYNPSFKNRISITRDISKNQFFLKLNSVTTEDTATYYCARQIGLRRGAMDHWGQGTSVTVSS VL: DIQMTQSSSYLSVSLGGRVTITCKASDHINNWLAWYQQKPGNAPRLLISGSTSLRAGVASRFSGSGSGKDYTLTITSLQTEDVATYYCQQYWGIPFTFGGGTKLEIK | – | – | – | – | – | – | – | – | 0.812 nM | 94% | 1.34 nM | 96.8%

More lines, now with the values ahead:

Row | IC50 (human CCR8 [1]) | Max Inhibition (%) (human CCR8 [1]) | Max MFI (human CCR8 [2]) | EC50 (cynomolgus CCR8) | Max MFI (cynomolgus CCR8) | EC50 (human CCR8 [3]) | Max MFI (human CCR8 [3]) | EC50 (human CCR8 [2]) | IC50 (human CCR8 [4]) | Max Inhibition (%) (human CCR8 [4]) | IC50 (human CCR8 [5]) | Max Inhibition (%) (human CCR8 [5]) | Binder
7 | 0.0816 nM | 100% | 28600 MFI | 0.157 nM | 4.42e+06 MFI | 0.0626 nM | 663000 MFI | 0.184 nM | – | – | – | – | Hu149-14 (antibody, human IgG1, V domains shown, human IgG1) VH: EVQLVESGGGLVQPGGSLKLSCAASGFTFNTYAMNWVRQASGKGLEWVGRIRSKSNFYATAYAASVKGRFTISRDDSKNTAYLQMNSLKTEDTAVYYCTRGREYGSAYAMDYWGQGTLVTVSS VL: DIVMTQSPLSLPVTPGEPASISCRSSKSLLHSNANTYLYWFLQKPGQSPQLLIYRMSNLASGVPDRFSGSGSGTDFTLKISRVEAEDVGVYYCMQHLEYPLTFGGGTKVELK
8 | 0.104 nM | 99.3% | 21300 MFI | 0.282 nM | 3.93e+06 MFI | 0.128 nM | 627000 MFI | 0.108 nM | – | – | – | – | Hu149-15 (antibody, human IgG1, V domains shown, human IgG1) VH: EVQLVESGGGLVQPGGSLKLSCAASGFTFNTYAMNWVRQAPGKGLEWVGRIRSKSNFYATAYAASVKGRFTISRDDSKNTAYLQMNSLKTEDTAVYYCTRGRDYGSSYAMDYWGQGTLVTVSS VL: DIVMTQSPLSLPVTPGEPASISCRSSKSLLHSNANTYLYWFLQKPGQSPQLLIYRMSNLASGVPDRFSGSGSGTDFTLKISRVEAEDVGVYYCMQHLEYPLTFGGGTKVELK
9 | 0.459 nM | 101% | 173000 MFI | 0.462 nM | 4.25e+06 MFI | 0.216 nM | 793000 MFI | – | – | – | – | – | Hu149-22 (antibody, human IgG1, V domains shown, human IgG1) VH: EVQLVESGGGLVQPGGSLKLSCAASGFTFNTYAMNWVRQASGKGLEWVGRIRSKSNFYATAYAASVKGRFTISRDDSKNTAYLQMNSLKTEDTAVYYCTRGREYGSAYAMDYWGQGTLVTVSS VL: DIVMTQSPLSLPVTPGEPASISCRSSKSLLHSNANTYLYWFLQKPGQSPQLLIYRMSNLASGVPDRFSGSGSGTDFTLKISRVEAEDVGVYYCMQHLKYPLTFGGGTKVELK
10 | 0.168 nM | 100% | 187000 MFI | 0.214 nM | 3.95e+06 MFI | 0.161 nM | 666000 MFI | – | – | – | – | – | Hu149-19 (antibody, human IgG1, V domains shown, human IgG1) VH: EVQLVESGGGLVQPGGSLKLSCAASGFTFNTYAMNWVRQASGKGLEWVGRIRSKSNFYATAYAASVKGRFTISRDDSKNTAYLQMNSLKTEDTAVYYCTRGREYGSSYAMDYWGQGTLVTVSS VL: DIVMTQSPLSLPVTPGEPASISCRSSKSLLHSNANTYLYWFLQKPGQSPQLLIYRMSNLASGVPDRFSGSGSGTDFTLKISRVEAEDVGVYYCMQHLKYPLTFGGGTKVELK
11 | 0.114 nM | 101% | 228000 MFI | 0.142 nM | 3.8e+06 MFI | 0.0659 nM | 672000 MFI | – | – | – | – | – | Hu149-16 (antibody, human IgG1, V domains shown, human IgG1) VH: EVQLVESGGGLVQPGGSLKLSCAASGFTFNTYAMNWVRQASGKGLEWVGRIRSKSNFYATAYAASVKGRFTISRDDSKNTAYLQMNSLKTEDTAVYYCTRGRDYGSSYAMDYWGQGTLVTVSS VL: DIVMTQSPLSLPVTPGEPASISCRSSKSLLHSNANTYLYWFLQKPGQSPQLLIYRMSNLASGVPDRFSGSGSGTDFTLKISRVEAEDVGVYYCMQHLKYPLTFGGGTKVELK
12 | – | – | – | – | – | – | – | – | 0.368 nM | 100% | 0.231 nM | 95% | 348E2D11 (antibody, V domains shown, purified murine hybridoma antibody) VH: QVQLVETGGGLVRPGNSLKLSCVTSGFSFSNYRMHWLRQPPGKRLEWIAVITVKSDNYGANYAESVKGRFTISRDDSKSSVYLQMNRLREEDTATYYCSSLGRVAYWGQGTLVTVSA VL: DIVMTQSQKFMFTSVGDRVSVTCKASQNVDTNVVWYQQKPGQSPKALIYSASSRYSGVPDRFTGSGSGTDFTLTISNVQSEDLAEYFCQQHNSFPLTFGAGTKLELI
13 | – | – | – | – | – | – | – | – | 0.934 nM | 85.6% | 13.3 nM | 89.7% | 191E12H8 (antibody, V domains shown, purified murine hybridoma antibody) VH: DVQLQESGPGLVKPSQSLSLTCSVTGYSITSGYYWNWIRQFPGNKLEWMGYISYDGSNNYNPSLKNRISITRDISKNQFFLKLNSVTTEDTATYYCARQIGLRRGAMDYWGQGTSVTVSS VL: DIQMTQSSSYLSVSLGGRVTITCKASDHINTWLAWYQQKPGNAPRLLISGSTSLKAGVASRFSGSGSGKDYTLTITSLQTEDVATYYCQQYWGIPFTFGGGTKLEIK
14 | – | – | – | – | – | – | – | – | 0.782 nM | 85.8% | 2.48 nM | 91.3% | 273H2G6 (antibody, V domains shown, purified murine hybridoma antibody) VH: DVQLQESGPGLVKPSQSLSLTCSVTGYSITSGYYWNWIRQFPGNKLEWMGYISYDGSNNYNPSLKNRISITRDISKNQFFLKLNSVTTEDTATYYCARQVGLRRGAMDYWGQGTSVTVSS VL: DIQMTQSSSYLSVSLGGRVTITCKASDHINNWLAWYQQKPGNAPRLLISGSTSLKAGVASRFSGSGSGKDYTLSITSLQTEDVATYYCQQYWSIPYTFGGGTKLEIK
